Source: publication PMC8392593

Columns and labels:
[1] = biological target: MuRF1 in fusion with the binding domain of GAL4 (pBridge, MCS I) (rat) (UniProt Q91Z63); assay: two-hybrid; yeast three-hybrid; pBridge::MuRF1/MHCIIa (MuRF1 GAL4 binding-domain fusion with MHCIIa residues 1–255 co-expressed from MCSII), preys in pGADT7; growth on -LTH + Aureobasidin A + 3-AT followed over 21 days
[2] = biological target: MuRF1 in fusion with the binding domain of GAL4 (pBridge, MCS I) (rat) (UniProt Q91Z63); assay: two-hybrid; Matchmaker Gold yeast two-hybrid; MuRF1 alone as GAL4 binding-domain fusion, preys in pGADT7; growth of diploid clones on -LTH + Aureobasidin A + 3-AT followed over 21 days
[3] = biological target: UBE2L3 (Homo sapiens) (UniProt P68036); assay: SPR; settings: cited from earlier work

percentage of clones grown on selective media [1] [%]	percentage of clones grown on selective media [2] [%]	Substance	Kd [3] [nM]
80	80	UBE2E1 in pGADT7 (GAL4 activation domain fusion) (from UniProt P52482 1-193) (enzyme)	–
–	–	MuRF1 (from UniProt Q969Q1)	50
